# Test results as given in IntAct's records for PubMed 30545121.
# B1: Ribosome maturation protein SBDS (Homo sapiens), Q9Y3A5 (parent)
# chain: MSIFTPTNQIRLTNVAVVRMKRAGKRFEIACYKNKVVGWRSGVEKDLDEVLQTHSVFVNVSKGQVAKKEDLISAFGTDDQTEICKQILTKGEVQVSDKERHTQLEQMFRDIATIVADKCVNPETKRPYTVILIERAMKDIHYSVKTNKSTKQQALEVIKQLKEKMKIERAHMRLRFILPVNEGKKLKEKLKPLIKVIESEDYGQQLEIVCLIDPGCFREIDELIKKETKGKGSLEVLNLKDVEEGDEKFE
# partner: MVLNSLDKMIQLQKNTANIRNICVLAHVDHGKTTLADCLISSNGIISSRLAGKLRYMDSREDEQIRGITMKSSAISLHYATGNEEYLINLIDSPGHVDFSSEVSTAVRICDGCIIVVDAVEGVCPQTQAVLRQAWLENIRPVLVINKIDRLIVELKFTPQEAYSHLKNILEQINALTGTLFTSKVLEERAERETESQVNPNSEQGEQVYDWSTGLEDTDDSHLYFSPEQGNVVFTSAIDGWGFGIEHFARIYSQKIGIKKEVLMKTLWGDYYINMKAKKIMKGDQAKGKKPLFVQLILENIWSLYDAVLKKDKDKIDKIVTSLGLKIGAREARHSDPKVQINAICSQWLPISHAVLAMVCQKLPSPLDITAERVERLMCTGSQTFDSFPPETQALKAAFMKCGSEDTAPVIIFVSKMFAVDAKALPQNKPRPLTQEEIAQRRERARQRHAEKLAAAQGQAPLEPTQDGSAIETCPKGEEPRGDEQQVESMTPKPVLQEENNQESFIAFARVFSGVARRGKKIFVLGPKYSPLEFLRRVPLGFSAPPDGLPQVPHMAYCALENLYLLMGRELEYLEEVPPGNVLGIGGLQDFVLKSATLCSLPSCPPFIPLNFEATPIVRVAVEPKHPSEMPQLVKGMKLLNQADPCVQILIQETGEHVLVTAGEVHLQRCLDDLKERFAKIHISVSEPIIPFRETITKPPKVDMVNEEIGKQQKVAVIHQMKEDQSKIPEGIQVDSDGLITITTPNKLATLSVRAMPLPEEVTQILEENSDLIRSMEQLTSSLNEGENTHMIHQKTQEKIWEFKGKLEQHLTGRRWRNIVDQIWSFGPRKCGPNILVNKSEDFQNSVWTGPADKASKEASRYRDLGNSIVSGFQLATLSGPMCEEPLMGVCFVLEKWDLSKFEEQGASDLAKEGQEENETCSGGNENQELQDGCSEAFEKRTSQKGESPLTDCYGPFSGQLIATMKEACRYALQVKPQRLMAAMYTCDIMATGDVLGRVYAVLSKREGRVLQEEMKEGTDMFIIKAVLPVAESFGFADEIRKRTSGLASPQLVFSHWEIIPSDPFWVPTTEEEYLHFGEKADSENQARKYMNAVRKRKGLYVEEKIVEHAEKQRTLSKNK
# Variants of: B1
# Details: with efl1_human EFL1, Q7Z2Z2
row,Variant,effect of a mutation on the interaction
1,R19Q,decreasing interaction strength
2,K67E,decreasing interaction strength
3,R126T,decreasing interaction strength
4,S143L,disrupting interaction strength
5,I167T,decreasing interaction strength
6,R175W,decreasing interaction strength
7,I212T,disrupting interaction strength
